A word on the Kd: it is the constant that tells how readily two partners part at equilibrium. Low readings indicate higher affinity, high ones lower affinity.

The record followed here is paper PMC5001606.

Numbering of substitutions follows the chain as printed. Numbers in names are those of the source.

Common to all, as to experiment: MST
Data set [1] deals with T1, HiNmlR wild-type (Haemophilus influenzae Rd KW20, UniProt P44558 1-135).
T1 sequence: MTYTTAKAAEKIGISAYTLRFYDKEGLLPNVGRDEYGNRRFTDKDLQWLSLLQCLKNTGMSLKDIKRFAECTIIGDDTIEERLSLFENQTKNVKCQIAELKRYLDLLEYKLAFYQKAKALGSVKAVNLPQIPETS

For data set [2], the target named is T2, HiNmlR C54A/C95A (Haemophilus influenzae Rd KW20, UniProt P44558 1-135, C54A;C95A).
T2 sequence: T1 sequence with C54A, C95A

Data set [3] addresses T3, HiNmlR C71A/C95A (Haemophilus influenzae Rd KW20, UniProt P44558 1-135, C71A;C95A).
T3 sequence: T1 sequence with C71A, C95A

Data set [4] addresses T4, HiNmlR C54A/C71A/C95A (Haemophilus influenzae Rd KW20, UniProt P44558 1-135, C54A;C71A;C95A).
T4 sequence: T1 sequence with C54A, C71A, C95A

Data set [5] addresses T5, HiNmlR C54A (Haemophilus influenzae Rd KW20, UniProt P44558 1-135, C54A).
T5 sequence: T1 sequence with C54A

B1: C5G 24-bp (dsDNA)
DNA 1: CACTTTAGAGTTCACTGTAAAGCA
DNA 2: TGCTTTACAGTGAACTCTAAAGTG
For B1, the Kd in data set [1] is 252 ± 17.4 nM.

B2: G5'C/C5G 24-bp (dsDNA)
DNA 1: CACTTTACAGTTCACTGTAAAGCA
DNA 2: TGCTTTACAGTGAACTGTAAAGTG
In data set [1], B2 registered a Kd of 4690 ± 311 nM.

B3: G5'C 24-bp (dsDNA)
DNA 1: CACTTTACAGTTCACTCTAAAGCA
DNA 2: TGCTTTAGAGTGAACTGTAAAGTG
Take B3: the Kd in data set [1] is 245 ± 26.1 nM.

B4: PadhC-estD/nmlR IR wt 24-bp (dsDNA)
DNA 1: CACTTTAGAGTTCACTCTAAAGCA
DNA 2: TGCTTTAGAGTGAACTCTAAAGTG
Regarding B4, the equilibrium dissociation constant (Kd) in data set [2] stood at 47.4 ± 6.7 nM; in data set [3], 33 ± 3.4 nM; in data set [1] it was 25.2 ± 2.3 nM; in data set [4], 55.3 ± 5.3 nM; in data set [5], 91.1 ± 15.6 nM.
